Data taken from publication PMC12375889 (Febs Letters, 2025).

Columns and labels:
SEC = target: the molecule itself; assay: SEC
native MS = target: the molecule itself; assay: native MS

B1: MvoDUF2193 (natural protein, Methanococcus voltae strain A3, UniProt D7DSA4 1-499, looked up)
chain: MKELYEKMINEAMAAQWADVEVIKAKRGTKYKLTDGKPYVDAVQKMEAIGDQCSEVFDLHKNSVKIHYDTLCDLTDTVRPEDDPFVEHYQTPAILEILYNEDPKFREAVEKFIDSVEKNSALIGKEVVRRYGGFYGPTCVVDFALIPGSTSNIVNQILRKTDISEHYKQAILASKSWGMNTSYGIGDKFAHAVEDGKTLEEAIDEEIKTIKMIYDTPIQAQAKLMEEAGHTSFDVLKYMQDYKKKMESTVKKAIDADVNYANIVTVPAYCVGDISHHIAQSTYNMCKDDVIMAIIEATSKVMDNTLRNNIDKYKSEFDVLSLATGSTAAAVEYILELDGFNAPTVVQLLTRRFHNYVQLYPKRGAAAELHNCDFMDMIYRGWKTLDKARRMKNGSGTKLMPMVNDMPVDLDPIAENEVIMNPQRYAYPACAITVRFSSLMRLSDYPCLLTSEPVTATMMTNAIALHKNNPGAPARVCKKCASSCLVDFRHEYCQWRESV
SEC
  stoichiometry N: 4
Native MS
  stoichiometry N: 2
